Patent US5879680A, “Cloned DNA for synthesizing unique glucocerebrosidase” (The United States of America as represented by the …, priority 1995, dated 1999)

Columns and labels:
[1] = substrate: Cc1cc(=O)oc2cc(O[C@@H]3O[C@H](CO)[C@@H](O)[C@H](O)[C@H]3O)ccc12; experiment: purified protein, by the assay type; assay type: biochemical, human; settings: other: recombinant enzyme in the media, pH 5.9, 100 mM potassium phosphate, 0.15% Triton X-100, 0.125% sodium taurocholate, 37.0 °C
Experimental: For pH profile and inhibition studies, glucocerebrosidase activity was measured using 100 mM potassium phosphate buffer containing 0.15% Triton X-100, 2.5 μl of β-D-[1-^14 C] glucocerebroside (7.5 mg/ml in sodium taurocholate at 50 mg/ml), and the sample in the total volume of 200 ul. Preincubations with conduritol-B-epoxide were for 30 min at 37° C. […] Purification of recombinant glucocerebrosidase was also monitored using 4MUGP.

[2] = substrate: Cc1cc(=O)oc2cc(O[C@@H]3O[C@H](CO)[C@@H](O)[C@H](O)[C@H]3O)ccc12; experiment: purified protein, by the assay type; settings: other: recombinant enzyme in the cell pellet, pH 5.9, 100 mM potassium phosphate, 0.15% Triton X-100, 0.125% sodium taurocholate, 37.0 °C

Protein | Km [1] [mM] | Km [2] [mM]
recombinant human glucocerebrosidase produced in baculovirus expression system (SF9 cells), culture media enzyme (Homo sapiens) (protein, made in house; host or cells: Spodoptera frugiperda SF9 cells, recombinant baculovirus (AcNPV, pAc373/GC)) ARPCIPKSFGYSSVVCVCNATYCDSFDPPTFPALGTFSRYESTRSGRRMELSMGPIQANHTGTGLLLTLQPEQKFQKVKGFGGAMTDAAALNILALSPPAQNLLLKSYFSEEGIGYNIIRVPMASCDFSIRTYTYADTPDDFQLHNFSLPEEDTKLKIPLIHRALQLAQRPVSLLASPWTSPTWLKTNGAVNGKGSLKGQPGDIYHQTWARYFVKFLDAYAEHKLQFWAVTAENEPSAGLLSGYPFQCLGFTPEHQRDFIARDLGPTLANSTHHNVRLLMLDDQRLLLPHWAKVVLTDPEAAKYVHGIAVHWYLDFLAPAKATLGETHRLFPNTMLFASEACVGSKFWEQSVRLGSWDRGMQYSHSIITNLLYHVVGWTDWNLALNPEGGPNWVRNFVDSPIIVDITKDTFYKQPMFYHLGHFSKFIPEGSQRVGLVASQKNDLDAVALMHPDGSAVVVVLNRSSKDVPLTIKDPAVGFLETISPGYSIHTYLWRRQ | 3.3 | –
recombinant human glucocerebrosidase produced in baculovirus expression system (SF9 cells), cell pellet enzyme (Homo sapiens) (protein) ARPCIPKSFGYSSVVCVCNATYCDSFDPPTFPALGTFSRYESTRSGRRMELSMGPIQANHTGTGLLLTLQPEQKFQKVKGFGGAMTDAAALNILALSPPAQNLLLKSYFSEEGIGYNIIRVPMASCDFSIRTYTYADTPDDFQLHNFSLPEEDTKLKIPLIHRALQLAQRPVSLLASPWTSPTWLKTNGAVNGKGSLKGQPGDIYHQTWARYFVKFLDAYAEHKLQFWAVTAENEPSAGLLSGYPFQCLGFTPEHQRDFIARDLGPTLANSTHHNVRLLMLDDQRLLLPHWAKVVLTDPEAAKYVHGIAVHWYLDFLAPAKATLGETHRLFPNTMLFASEACVGSKFWEQSVRLGSWDRGMQYSHSIITNLLYHVVGWTDWNLALNPEGGPNWVRNFVDSPIIVDITKDTFYKQPMFYHLGHFSKFIPEGSQRVGLVASQKNDLDAVALMHPDGSAVVVVLNRSSKDVPLTIKDPAVGFLETISPGYSIHTYLWRRQ | – | 3.6
